Test [1] concerns the target succinylated concanavalin A. Put plainly: cryo-EM structure; time-resolved cryo-EM: purified GluK2 at 60 uM incubated with 500 uM BPAM344 for 20-30 min on ice, 90 uM succinylated concanavalin A added, 10 mM L-glutamate applied less than 3 s before plunge-freezing; 150 mM NaCl, 20 mM Tris-HCl pH 8.0, 0.05% digitonin.
Test [2] concerns the target full-length rat GluK2 kainate receptor (rat) (UniProt P42260). The test is described as above.

On to “succinylated concanavalin A (natural protein)”, for which the stoichiometry N (in general, a count of units in the complex or per binding partner) in test [1] was found to be 2. In turn, “full-length rat GluK2 kainate receptor (from UniProt P42260 32-908)” showed a stoichiometry N in test [2] of 4.

These data come from paper PMC11186766.
